According to article PMC8479633:

Columns and labels:
[1] = molecular target: SMAD2 linker-MH2 construct, non-phosphorylated (S2LMH2); assay: SAXS with ensemble optimisation
[2] = molecular target: phosphomimetic full-length SMAD2 (S2FLEEE) (UniProt Q15796); assay: SAXS with ensemble optimisation

Chain of phosphomimetic full-length SMAD2 (S2FLEEE) (from UniProt Q15796 1-467) (natural protein) (Q15796 whole entry): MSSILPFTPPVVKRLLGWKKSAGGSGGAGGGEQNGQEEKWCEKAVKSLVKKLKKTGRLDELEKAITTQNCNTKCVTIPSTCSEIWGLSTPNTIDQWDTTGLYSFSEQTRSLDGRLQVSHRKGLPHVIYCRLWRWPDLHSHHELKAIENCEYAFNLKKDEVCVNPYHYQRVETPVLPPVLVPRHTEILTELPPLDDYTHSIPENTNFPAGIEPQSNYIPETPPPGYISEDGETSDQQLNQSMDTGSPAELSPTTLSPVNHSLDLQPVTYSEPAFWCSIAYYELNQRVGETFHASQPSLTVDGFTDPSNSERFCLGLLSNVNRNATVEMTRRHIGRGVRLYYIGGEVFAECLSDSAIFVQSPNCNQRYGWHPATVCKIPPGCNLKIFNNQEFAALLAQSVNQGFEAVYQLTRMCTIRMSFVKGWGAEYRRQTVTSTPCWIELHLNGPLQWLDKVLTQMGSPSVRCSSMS
Chain of SMAD2 linker-MH2 construct, non-phosphorylated (S2LMH2) (domain or fragment) (Q15796 269-467): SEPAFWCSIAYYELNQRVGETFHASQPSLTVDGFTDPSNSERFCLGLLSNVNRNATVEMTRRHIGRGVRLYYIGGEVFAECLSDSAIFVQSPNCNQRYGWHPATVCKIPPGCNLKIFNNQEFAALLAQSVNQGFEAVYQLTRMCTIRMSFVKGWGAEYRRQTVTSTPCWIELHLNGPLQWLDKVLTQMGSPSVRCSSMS

| Substance | percent of the population as dimer [1] [%] | percent of the population as dimer [2] [%] | percent of the population as trimer [2] [%] |
| --- | --- | --- | --- |
| SMAD2 linker-MH2 construct, non-phosphorylated (S2LMH2) (domain or fragment) | 25 |  |  |
| phosphomimetic full-length SMAD2 (S2FLEEE) (from UniProt Q15796 1-467) (natural protein) |  | 36 | 44.8 |
